T1: mouse HRt (hairless protein aa 490-1182) (Mus musculus, UniProt Q61645)
T1 construct: HR cDNA corresponding to the C-terminal half of HR protein (aa residues 490 to 1182, hereinafter HRt); expressed in transfected cells; host or cells: Saccharomyces cerevisiae PJ69-2A transformed with BD-HRt plasmid, mated with Y187 carrying the human brain cDNA library in pACT2
T1 sequence (Q61645 490-1182): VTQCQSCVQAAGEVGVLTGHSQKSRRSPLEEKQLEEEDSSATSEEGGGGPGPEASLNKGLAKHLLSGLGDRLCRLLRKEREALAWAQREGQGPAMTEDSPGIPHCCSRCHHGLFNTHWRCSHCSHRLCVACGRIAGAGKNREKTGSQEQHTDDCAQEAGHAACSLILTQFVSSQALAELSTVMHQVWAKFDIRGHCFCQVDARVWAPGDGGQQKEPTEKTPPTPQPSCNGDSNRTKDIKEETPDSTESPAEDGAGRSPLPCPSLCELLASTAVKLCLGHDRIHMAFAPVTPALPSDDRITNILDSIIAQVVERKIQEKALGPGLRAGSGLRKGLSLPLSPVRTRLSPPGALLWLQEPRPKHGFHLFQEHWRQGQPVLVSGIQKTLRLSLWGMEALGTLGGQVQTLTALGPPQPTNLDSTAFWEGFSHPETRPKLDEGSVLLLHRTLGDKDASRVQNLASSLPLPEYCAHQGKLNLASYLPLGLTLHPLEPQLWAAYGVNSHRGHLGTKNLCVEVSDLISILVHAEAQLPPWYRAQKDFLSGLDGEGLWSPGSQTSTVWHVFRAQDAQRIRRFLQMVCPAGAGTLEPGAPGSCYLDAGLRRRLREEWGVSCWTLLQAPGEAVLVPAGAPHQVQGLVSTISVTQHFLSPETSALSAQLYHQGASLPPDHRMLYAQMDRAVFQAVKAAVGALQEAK


These molecules were tested on Male C3H mice (assay: Animal model for hair growth stimulation (HGS) activity). Conditions: applied daily for 17 days to shaved, Nair-treated back; day 17 compared to control treatment.
Assay type: in vivo
Protocol: Male C3H mice (˜42-48 days old and weighing ˜24 g) purchased from Harlan are acclimatized for 2 days and ˜2 cm^2 area on their back is shaved closely with an electric hair trimmer. To the shaved area, ˜300 μl of Nair lotion (NEW! Quick'n Easy 4 Minute Formula) is thinly smeared with a gloved fingertip for ˜30 sec. The area is wiped with Kimwipes for ˜15 sec and immediately washed under a gentle stream of lukewarm water for ˜50 sec and patted dry with Kimwipes. Test materials are applied (5 animals/test material) daily for 17 days. The shaved area is visually observed every day for anagen conversion and hair growth. Animal backs are photographed on day 8 and 17. In this model Triiodo thyronine (T3) has clear HGS activity (100% HGS activity), as evidenced by early onset of pigmentation and clear increase in hair length at day 17 compared to control treatment (60% ethanol, 20% propylene glycol and 20% Transcutol).

Molecule | HGS activity [%]
N[C@@H](Cc1cc(I)c(Oc2ccc(O)c(I)c2)c(I)c1)C(=O)O [Triiodo thyronine] | 100

Each molecule was assayed against T1, mouse HRt (hairless protein aa 490-1182) (assay: Yeast two-hybrid screen of BD-HRt against human brain cDNA library in AD vector, lacZ coloration on QDO-Xgal plates). Conditions: BD-HRt(mouse) x human brain cDNA library in AD-vector.
Assay type: cell-based
Description: The present example provides for Hairless Protein (HR) interacting partners (HR-IP) using the yeast two-hybrid technology. […] Yeast cells expressing BD-HRt are mated with yeast cells pretransformed with human brain cDNA library in the activation domain (AD) vector.
Cloning of HRt into GAL4 binding domain (BD) yeast two-hybrid (Y2H) vector: The HRt insert from pET32a-HRt is excised as an Eco RI-Xho I fragment (there is a unique Xho I site just adjacent to HRt insert) and inserted at the Eco RI-Sal I sites of Y2H-BD vector pGBKT7 (Catalog No. K1612-B; a component of Matchmaker two-hybrid System 3 (Catalog No. K1612-1) BD Biosciences Clontech, Palo Alto, Calif.) to obtain pGBKT7-HRt in which HRt is fused in-frame to GAL 4 DNA BD (this plasmid is also designated BD-HRt).
Pretransformed human brain […] cDNA Library Screen for HRt interaction partners: Pretransformed human brain […] high-complexity GAL4 cDNA library that has already been amplified and introduced into yeast strain Y187 (MATα) is used to screen for HRt interacting proteins. […] The library host strain Y187 provides a third reporter gene (lacZ) for optional quantification of signal strength. The protocol as described in Clontech user manual (PT3183-1) is used. Briefly, the library is mixed with PJ69-2A strain that has been transformed with the BD-HRt plasmid in YPD medium containing adenine hemisulfate (0.004%) and kanamycin (0.005%) and incubated for 20-24 h at 30° C. The next day, the mating mixture is plated on Leu, Trp, His TDO that selects for two-hybrid interactions, and then the positive clones are screened for growth on Leu, Trp, His, Ade QDO, which is a more stringent condition for interaction. Colonies that grew well on QDO are also screened for lacZ expression by streaking on QDO-Xgal plates. Based on a visual assessment of colonies for the intensity of blue color, the clones are classified into high (H), medium (M), low (L) or very low (VL) categories.
The positive clones are expected to contain an AD-IP (interacting partner) that interacts with BD-HRt. To characterize IP, the sequence of IP is determined and matched to the human genome database. For this purpose, total DNA is isolated from the positive clones and PCR amplified with […] AD LD (long distance)-insert screening amplimers (Catalog No.9103-1; BD Biosciences Clontech, PaloAlto, Calif.). Reaction is conducted in 50 μl volume for 35 cycles using the conditions recommended with the Advantage2 PCR kit (Catalog No. K1910-1; BD Biosciences Clontech, PaloAlto, Calif.).

Molecule | XGAL (rate and intensity of coloration of colonies on Xgal)
Human neuronal membrane glycoprotein M6b1: human HRt interacting partner, GenBank AF016004, SEQ ID NO:56 (protein, UniProt Q13491 1-265, looked up) Neuronal membrane …: MKPAMETAAEENTEQSQERKGCFECCIKCLGGVPYASLVATILCFSGVALFCGCGHVALAGTVAILEQHFSTNASDHALLSEVIQLMQYVIYGIASFFFLYGIILLAEGFYTTSAVKELHGEFKTTACGRCISGMFVFLTYVLGVAWLGVFGFSAVPVFMFYNIWSTCEVIKSPQTNGTTGVEQICVDIRQYGIIPWNAFPGKICGSALENICNTNEFYMSYHLFIVACAGAGATVIALLIYMMATTYNYAVLKFKSREDCCTKF | L (L = Low blue in 5-7 days)
Human splicing factor (CC1.4): human HRt interacting partner, GenBank L10911, SEQ ID NO:59/60 (protein, listed as Homo sapiens) EFAAASTTAPVIIFVSKMFAVDAKALPQNKPRPLTQEEIAQRRERARQRHAEKLAAAQGQAPLEPTQDGSAIETCPKGEEPRGDEQQVESMTPKPVLQEENNQESFIAFARVFSGVARRGKKIFVLGPKYSPLEFLRRVPLGFSAPPDGLPQVPHMAYCALENLYLLMGRELEYLEEVPPGNVLGIGGLQDFVLKSATLCSLPSCPPFIPLNFEATPIVRVAVEPKHPSEMPQLVKG | L/VL
Human PACE4 (SPC4): human HRt interacting partner, GenBank AB001899, SEQ ID NO:69 (protein, UniProt P29122 150-969, looked up) Proprotein convertase …: QVRSDPQALYFNDPIWSNMWYLHCGDKNSRCRSEMNVQAAWKRGYTGKNVVVTILDDGIERNHPDLAPNYDSYASYDVNGNDYDPSPRYDASNENKHGTRCAGEVAASANNSYCIVGIAYNAKIGGIRMLDGDVTDVVEAKSLGIRPNYIDIYSASWGPDDDGKTVDGPGRLAKQAFEYGIKKGRQGLGSIFVWASGNGGREGDYCSCDGYTNSIYTISVSSATENGYKPWYLEECASTLATTYSSGAFYERKIVTTDLRQRCTDGHTGTSVSAPMVAGIIALALEANSQLTWRDVQHLLVKTSRPAHLKASDWKVNGAGHKVSHFYGFGLVDAEALVVEAKKWTAVPSQHMCVAASDKRPRSIPLVQVLRTTALTSACAEHSDQRVVYLEHVVVRTSISHPRRGDLQIYLVSPSGTKSQLLAKRLLDLSNEGFTNWEFMTVHCWGEKAEGQWTLEIQDLPSQVRNPEKQGKLKEWSLILYGTAEHPYHTFSAHQSRSRMLELSAPELEPPKAALSPSQVEVPEDEEDYTAQSTPGSANILQTSVCHPECGDKGCDGPNADQCLNCVHFSLGSVKTSRKCVSVCPLGYFGDTAARRCRRCHKGCETCSSRAATQCLSCRRGFYHHQEMNTCVTLCPAGFYADESQKNCLKCHPSCKKCVDEPEKCTVCKEGFSLARGSCIPDCEPGTYFDSELIRCGECHHTCGTCVGPGREECIHCAKNFHFHDWKCVPACGEGFYPEEMPGLPHKVCRRCDENCLSCAGSSRNCSRCKTGFTQLGTSCITNHTCSNADETFCEMVKSNRLCERKLFIQFCCRTCLLAG | L (L = Low blue in 5-7 days)
Human cDNA FLJ20109 fis clone COL05067: human HRt interacting partner, GenBank BC009472, SEQ ID NO:72/73 (protein, listed as Homo sapiens) VASPPVPCSAAFRSLHISVARDLKMRLHLLLLLALCGAGTTAAELSYSLRGNWSICNGNGSLELPGAVPGCVHSALFQ | L (L = Low blue in 5-7 days)
Human MDC15: human HRt interacting partner, GenBank U46005, SEQ ID NO:77 (protein, listed as Homo sapiens) LGLQWHADGRLTKKLNGLADLEACIKTLHGQGFSQPSLTTLTAFSVEGCLQEHCVILIQSW | L (L = Low blue in 5-7 days)
Human […]-mannosidase: human HRt interacting partner, GenBank U60337, SEQ ID NO:80/81 (protein, UniProt O00462 18-879, looked up) Beta-mannosidase: AAELSYSLRGNWSICNGNGSLELPGAVPGCVHSALFQQGLIQDSYYRFNDLNYRWVSLDNWTYSKEFKIPFEISKWQKVNLILEGVDTVSKILFNEVTIGETDNMFNRYSFDITNVVRDVNSIELRFQSAVLYAAQQSKAHTRYQVPPDCPPLVQKGECHVNFVRKEQCSFSWDWGPSFPTQGIWKDVRIEAYNICHLNYFTFSPIYDKSAQEWNLEIESTFDVVSSKPVGGQVIVAIPKLQTQQTYSIELQPGKRIVELFVNISKNITVETWWPHGHGNQTGYNMTVLFELDGGLNIEKSAKVYFRTVELIEEPIKGSPGLSFYFKINGFPIFLKGSNWIPADSFQDRVTSELLRLLLQSVVDANMNTLRVWGGGIYEQDEFYELCDELGIMVWQDFMFACALYPTDQGFLDSVTAEVAYQIKRLKSHPSIIIWSGNNENEEALMMNWYHISFTDRPIYIKDYVTLYVKNIRELVLAGDKSRPFITSSPTNGAETVAEAWVSQNPNSNYFGDVHFYDYISDCWNWKVFPKARFASEYGYQSWPSFSTLEKVSSTEDWSFNSKFSLHRQHHEGGNKQMLYQAGLHFKLPQSTDPLRTFKDTIYLTQVMQAQCVKTETEFYRRSRSEIVDQQGHTMGALYWQLNDIWQAPSWASLEYGGKWKMLHYFAQNFFAPLLPVGFENENTFYIYGVSDLHSDYSMTLSVRVHTWSSLEPVCSRVTERFVMKGGEAVCLYEEPVSELLRRCGNCTRESCVVSFYLSADHELLSPTNYHFLSSPKEAVGLCKAQITAIISQQGDIFVFDLETSAVAPFVWLDVGSIPGRFSDNGFLMTEKTRTILFYPWEPTSKNELEQSFHVTSLTDIY | L (L = Low blue in 5-7 days)
Human metallothionein from cadmium-treated cells: human HRt interacting partner, GenBank V00594, SEQ ID NO:3/4 (protein, listed as Homo sapiens) VPANPRATCPDSSRLFSSPWIPTAPAPPVTPAPAPAPANAKSANAPPARKAAAPAALWAVPSVPRAASAKGRRTSAAAAPDAGTAPLPDVKNATSTNLDFLCTTLTVTVCYIPFSMK | H (H = Intense blue within 2-3 days)

Reference: US20040086945A1, “Hairless protein-interacting partner complexes and methods thereto” (The Procter & Gamble Company, priority 2002, published 2004)
